This note sets out measurements from PMC4918325, “Mto2 multisite phosphorylation inactivates non-spindle microtubule nucleation complexes during mitosis” (Nature Communications, 2015).

In this assay the target is T1, Mto1-SZZ (protein A-tagged Mto1) (Schizosaccharomyces pombe, UniProt O94488 1-1115).
T1 construct: Mto1, Schizosaccharomyces pombe; Bait of all IgG-bead pulldowns; also called SZZ-tagged Mto1; source: S. pombe, gene tagged by PCR-based methods, in cell extract
T1 sequence (looked up): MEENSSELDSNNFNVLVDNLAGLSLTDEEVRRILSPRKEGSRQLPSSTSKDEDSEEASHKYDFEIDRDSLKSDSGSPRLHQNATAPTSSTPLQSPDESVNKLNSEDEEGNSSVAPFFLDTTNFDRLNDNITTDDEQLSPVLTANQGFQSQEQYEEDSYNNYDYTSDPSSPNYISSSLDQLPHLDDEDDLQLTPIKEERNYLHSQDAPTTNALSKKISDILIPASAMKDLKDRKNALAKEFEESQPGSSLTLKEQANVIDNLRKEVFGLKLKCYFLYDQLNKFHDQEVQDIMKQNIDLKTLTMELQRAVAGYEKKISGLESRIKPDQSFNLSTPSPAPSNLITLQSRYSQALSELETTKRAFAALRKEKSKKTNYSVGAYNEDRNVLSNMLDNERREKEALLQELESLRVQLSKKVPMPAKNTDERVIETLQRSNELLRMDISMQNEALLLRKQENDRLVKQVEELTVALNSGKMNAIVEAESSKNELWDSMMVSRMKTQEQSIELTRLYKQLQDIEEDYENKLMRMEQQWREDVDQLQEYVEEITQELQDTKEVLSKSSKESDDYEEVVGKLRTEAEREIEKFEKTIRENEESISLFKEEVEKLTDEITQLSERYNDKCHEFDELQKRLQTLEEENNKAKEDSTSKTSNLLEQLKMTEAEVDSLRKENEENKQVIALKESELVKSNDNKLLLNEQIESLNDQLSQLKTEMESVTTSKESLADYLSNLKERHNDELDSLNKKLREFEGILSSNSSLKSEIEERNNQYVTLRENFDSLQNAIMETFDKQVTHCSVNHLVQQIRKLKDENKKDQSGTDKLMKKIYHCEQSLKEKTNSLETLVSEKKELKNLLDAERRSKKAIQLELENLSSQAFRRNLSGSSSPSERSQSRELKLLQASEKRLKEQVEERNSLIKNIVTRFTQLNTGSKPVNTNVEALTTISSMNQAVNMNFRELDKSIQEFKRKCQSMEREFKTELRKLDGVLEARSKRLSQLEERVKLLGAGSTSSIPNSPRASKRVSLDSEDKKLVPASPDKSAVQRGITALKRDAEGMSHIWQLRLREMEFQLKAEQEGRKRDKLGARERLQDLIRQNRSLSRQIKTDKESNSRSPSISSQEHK
Briefly: pull-down; IgG-coupled Dynabeads pull Mto1-SZZ from extracts of interphase (asynchronous) S. pombe cells (mto2+, mto2[6A], mto2[13A], mto2[17A], mto2[24A]); 90 min at 4 °C; lysis buffer 25 mM sodium phosphate pH 7.5, 100 mM KCl, 0.5 mM EDTA, 0.2% Triton X-100 with protease and phosphatase inhibitors; western blot. The settings on record: partners not purified.

B1: Gtb1 (S. pombe γ-tubulin) (natural protein, UniProt P25295 1-446, looked up)
chain: MGREIITLQAGQCGNQIGSQFWQQLCLEHGIGPDGTLESFATEGVDRKDVFFYQSDDTRYIPRAILIDLEPRVVNNILSDTYGSLYNPENILITKNGGGAGNNWANGYSHAERIFEDIMDMIDREADGSDSLEGFSLLHSIAGGTGSGLGSFLLERLNDRYPKKIIQTYSVFPNSQSVSDVVVQPYNSLLALKRLTLNADSVVVLDNAALAHIAADRLHTQNPTFHQQNQLVSTVMSASTTTLRYPGYMNNDLVSIIASLIPSPRCHFLLTSYTPFTNQQVEEAKAIRKTTVLDVMRRLLLPKNQMVSVNPSKKSCFISILDIIQGEADPADVHKSLLRIRERRYASFIPWGPASIQVALSKKSPYIKTNHRVSGLMLANHTSIASLFKRTLDQYDRLRKRNAFLEQYKKEAIFEDDLNEFDSSRDVVADLINEYEACEDPNYLSL
notes: γ-tubulin Gtb1, Schizosaccharomyces pombe; Detected by anti-γ-tubulin blot (GTU-88); also called read-out of the γ-tubulin complex (γ-TuC); source: endogenous, S. pombe cell extract
Turning to B1, the “fold change of γ-tubulin copurifying with Mto1-SZZ in mto2[6A] cells relative to wild-type cells” value was roughly 1.5 fold, the “fold change of γ-tubulin copurifying with Mto1-SZZ in mto2[13A] cells relative to wild-type cells” value is roughly 1.5 fold and the “fold change of γ-tubulin copurifying with Mto1-SZZ in mto2[17A] cells relative to wild-type cells” value is roughly 3 fold.
